Laboratory results from the supplement of paper PMC11196671.
± gives the standard deviation of the averaged measurements.

Assay: PET hydrolysis product formed (TPA+MHET+BHET, UV-Vis) per mg enzyme (mmol/mg enzyme); higher = more PET depolymerisation activity; extreme values may be limits of the assay
Conditions: 24 h
Method: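 Purified PET hydrolases, 2.5 ug enzyme on 3.5 mg amorphous PET film (aFilm) or crystalline PET powder (cryPow) in 0.5 mL of 50 mM buffer (NaCitrate pH 4.5/5.5, NaPhosphate 6.5/7.5, glycine 8.5/9.5) at 60 or 70 C with shaking for 24 h. Total aromatic product by UV-Vis (260/280 nm, blank-subtracted, normalised per mg enzyme) and individual TPA, MHET, BHET concentrations by UHPLC-DAD at 240 nm; duplicate reactions.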

[1] = PET substrate: aFilm, 60 °C, pH 4.5
[2] = PET substrate: aFilm, 60 °C, pH 5.5
[3] = PET substrate: aFilm, 60 °C, pH 6.5
[4] = PET substrate: aFilm, 60 °C, pH 7.5
[5] = PET substrate: aFilm, 60 °C, pH 8.5
[6] = PET substrate: aFilm, 60 °C, pH 9.5
[7] = PET substrate: aFilm, 70 °C, pH 4.5
[8] = PET substrate: aFilm, 70 °C, pH 5.5
[9] = PET substrate: aFilm, 70 °C, pH 6.5
[10] = PET substrate: aFilm, 70 °C, pH 7.5
[11] = PET substrate: aFilm, 70 °C, pH 8.5
[12] = PET substrate: aFilm, 70 °C, pH 9.5
[13] = PET substrate: cryPow, 60 °C, pH 4.5
[14] = PET substrate: cryPow, 60 °C, pH 5.5
[15] = PET substrate: cryPow, 60 °C, pH 6.5
[16] = PET substrate: cryPow, 60 °C, pH 7.5
[17] = PET substrate: cryPow, 60 °C, pH 8.5
[18] = PET substrate: cryPow, 60 °C, pH 9.5
[19] = PET substrate: cryPow, 70 °C, pH 4.5
[20] = PET substrate: cryPow, 70 °C, pH 5.5
[21] = PET substrate: cryPow, 70 °C, pH 6.5
[22] = PET substrate: cryPow, 70 °C, pH 7.5
[23] = PET substrate: cryPow, 70 °C, pH 8.5
[24] = PET substrate: cryPow, 70 °C, pH 9.5

Sequence	PET hydrolysis product formed [1]	PET hydrolysis product formed [2]	PET hydrolysis product formed [3]	PET hydrolysis product formed [4]	PET hydrolysis product formed [5]	PET hydrolysis product formed [6]	PET hydrolysis product formed [7]	PET hydrolysis product formed [8]	PET hydrolysis product formed [9]	PET hydrolysis product formed [10]	PET hydrolysis product formed [11]	PET hydrolysis product formed [12]	PET hydrolysis product formed [13]	PET hydrolysis product formed [14]	PET hydrolysis product formed [15]	PET hydrolysis product formed [16]	PET hydrolysis product formed [17]	PET hydrolysis product formed [18]	PET hydrolysis product formed [19]	PET hydrolysis product formed [20]	PET hydrolysis product formed [21]	PET hydrolysis product formed [22]	PET hydrolysis product formed [23]	PET hydrolysis product formed [24]
ADNPYQRGPDPTNASIEAATGPFAVGTQPIVGASGFGGGQIYYPTDTSQTYGAVVIVPGFISVWAQLAWLGPRLASQGFVVIGIETSTITDLPDPRGDQALAALDWATTRSPVRSRIDRTRLAAAGWSMGGGGLRRAACQRPSLKAIVGMAPWNTEKNWSCVTVPTLFFGGSSDAVASPNDHAKPFYNSITRAEKDYIELCNADHFFPTSANTTMAKYFISWLKRWVDNDTRYTQFLCPGPSTGLFAPVCASMNTCPF [CaPETaseM9]	0	0.0213 ± 0.013	0.0426 ± 0.0061	0.132 ± 0.037	0.0575 ± 0.005	0.102 ± 0.029	0	0	0	0	0	0	0.016 ± 0.0019	0.0317 ± 0.0017	0.0476 ± 0.0037	0.0789 ± 0.011	0.0427 ± 0.0075	0.0717 ± 0.019	0	0.00351 ± 0.005	0.0154 ± 0.0042	0.0196 ± 0.0026	0.0178 ± 0.0023	0.0148 ± 0.0087
ANPYERGPNPTDALLEARSGPFSVSEENVSRLSASGFGGGTIYYPRENNTYGAVAISPGYTGTEASIAWLGERIASHGFVVITIDTITTLDQPDSRAEQLNAALNHMINRASSTVRSRIDSSRLAVMGHSMGGGGSLRLASQRPDLKAAIPLTPWHLNKNWSSVTVPTLIIGADLDTIAPVATHAKPFYNSLPSSISKAYLELDGATHFAPNIPNKIIGKYSVAWLKRFVDNDTRYTQFLCPGPRDGLFGEVEEYRSTCPF [TfCut2]	0	0.0295 ± 0.0072	0.0361 ± 0.011	0.111 ± 0.025	0.0556 ± 0.0097	0.133 ± 0.015	0	0	0.0032 ± 0.0045	0	0.0109 ± 0.00071	0.0072 ± 0.0013	0	0	0.00709 ± 0.01	0.0369 ± 0.026	0.0198 ± 0.0049	0.0223 ± 0.019	0	0	0	0	0	0
QDNPYERGPDPTEDSIEAIRGPFSVATERVSSFASGFGGGTIYYPRETDEGTFGAVAVAPGFTASQGSMSWYGERVASHGFIVFTIDTNTRLDAPGQRGRQLLAALDYLVERSDRKVRERLDPNRLAVMGHSMGGGGSLEATVMRPSLKASIPLTPWHLDKTWGQVQVPTFIIGAELDTIAPVSTHAKPFYESLPSSLPKAYMELCGATHFAPNIPNTTIAKYVISWLKRFVDEDTRYSQFLCPNPTDRAICEYRSTCPY [Cut190*SS]	0	0	0.0256 ± 0.0062	0.154 ± 0.0032	0.0616 ± 0.0081	0.162 ± 0.035	0	0	0	0.191 ± 0.0084	0	0.169 ± 0.015	0	0.0274 ± 0.0032	0.0533 ± 0.0029	0.0968 ± 0.012	0.0772 ± 0.035	0.0813 ± 0.026	0	0	0.00998 ± 0.0019	0.031	0.0112 ± 0.00036	0.0149 ± 0.0056
QTNPYARGPDPTAASLEASAGPFTVRSFTVSRPSGYGAGTVYYPTNAGGTVGAIAIVPGYTARQSSIKWWGPRLASHGFVVITIDTNSTLDQPESRSSQQMAALEQVASLNGTSSSPIYGKVDTARMGVMGWSMGGGGSLISACNNPSLKAAVVQAPWHSSTNFSCVTVPTLIFACENDSIAPVNSSALPIYDSMSENAKQFLEICGGSHSCANTGNSDQALIGKKGVAWMKRFMDNDTRYSTFACENPNSTRVCDFRTANCS [Z1-PETase]	0	0.00483 ± 0.0068	0.113 ± 0.03	0.617 ± 0.27	0.103 ± 0.0058	0.517 ± 0.092	0	0	0	0.00464 ± 0.0066	0	0.00672 ± 0.0095	0	0.0183 ± 0.014	0.126 ± 0.0032	0.152 ± 0.0075	0.117 ± 0.022	0.134 ± 0.0067	0	0	0.0331 ± 0.0023	0.0691 ± 0.012	0.0403	0.0592 ± 0.022
QTNPYARGPNPTAASLEASAGPFTVRSFTVARPVGYGAGTVYYPTNAGGTVGAIAIVPGYTATQSSINWWGPRLASHGFVVITIDTNSTLDKPESRSSQQMAALRQVASLNGTSSSPIYGKVDTARGGVMGWSMGGGGSLISAANNPSLKAAAVMAPWHSSTNFSSVTVPTLIFACENDRIAPVKEYALPIYDSMSLNAKQFLEICGGSHSCACSGNSNQALIGMKGVAWMKRFMDNDTRYSQFACENPNSTAVCDFRTANCS [HotPETase]	0	0.126 ± 0.01	0.172 ± 0.017	1.02 ± 0.28	0.116 ± 0.0013	0.744 ± 0.13	0	0	0.0334 ± 0.033	0.0761 ± 0.082	0.049 ± 0.0026	0.175 ± 0.067	0	0.118 ± 0.008	0.14 ± 0.0042	0.195 ± 0.031	0.104 ± 0.008	0.151 ± 0.0065	0	0.0481 ± 0.003	0.103 ± 0.0067	0.094 ± 0.019	0.0775 ± 0.0022	0.0809 ± 0.015
